In PMC4263166:

Biological target: Spleen tyrosine kinase (Syk) (UniProt P43405)
Test: affinity purification of mIgG2a-BCRs with protein A/G agarose beads, anti-Syk immunoblot, band intensity quantified
Settings: no inhibitor, Ramos cells

mIgG2a-BCR (wild-type mouse γ2am expressed in Ramos cells, with Igα/β) (from UniProt P11912;P40259) YF
response (Syk/γ2am (normalized band intensity)) (stimulated for 5 min with polyclonal goat anti-mouse IgG antibodies): 1.7
response (Syk/γ2am (normalized band intensity)) (unstimulated (0 min α-IgG)): 0.3
